The target in the assay is NKG2D ligands expressed on YAC-1 cells. In words: cell-based or functional assay.

B1: murine NKG2D-Fc fusion protein (IgG2a-IEGR-NKG2D construct) (Fc fusion, mouse, not shown: a dimerising Fc or GST)
chain: IEGRETFQPVLCNKEVPVSSREGYCGPCPNNWICHRNNCYQFFNEEKTWNQSQASCLSQNSSLLKIYSKEEQDFLKLVKSYHWMGLVQIPANGSWQWEDGSSLSYNQLTLVEIPKGSCAVYGSSFKAYTEDCANLNTYICMKRAV
Consider B1, for which the ADCC by thioglycollate-elicited macrophages (percent of target cells) was 55% and the complement-dependent lysis of YAC-1 cells was 80%.

Values taken from patent publication US20110311535A1.
